System: MS2 coat protein
Test: apparent KD of MS2 coat protein; designed switch direction (-1 OFF switch, 1 ON switch): -1; higher = weaker reporter binding
Summary of the method: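 For each design, the apparent KD is the median over clusters of curves fitted to normalised cluster fluorescence. Clusters held RNA switches with common flanks, transcribed on Illumina chips by stalled E. coli RNA polymerase. These were titrated with SNAP-549-labelled MS2 coat protein, doubling from 0.7 or 1.5 nM to 3 µM, without input, with 200 uM small-molecule ligand, or with an oligonucleotide input.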

[1] = input ligand: microRNA oligo, concentration not stated
[2] = Eterna round: R95, input ligand: microRNA oligo, concentration not stated
[3] = Eterna round: R95, input ligand: FMN 200 uM
[4] = Eterna round: R95, input ligand: none

Sequence | apparent KD of MS2 coat protein (input ligand: FMN 200 uM) | apparent KD of MS2 coat protein (input ligand: none) | apparent KD of MS2 coat protein [2] | other results
CUUCUGUGAGGAUAUGUUAGUUCCCAGCAAAUCGCUGGGAGACAGAAGGCACAUGAGGAUCACCCAUGUGGGCG [Vexeanra] (Eterna round: R96, puzzle: Exclusion 4) | 612 nM | 64.7 nM | – | apparent KD of MS2 coat protein [1]: 49.8 nM
CUUGAAUAAGUGAGGAUAUACUGUUAGUAAUGAUUGUAGAAGGUACAUGAGGAUCACCCAUGUUUAUUCAUAAU [JR_BME4_Sub041] (puzzle: Brourd's mod of Exclusion 4) | – | – | 17.5 nM | –
CUUGUGUCAGGAUAUGCUAAGUAUUCGUUUUACGCGUCUAGGCAGAAGGGACAUGAGGAUCACCCAUGUAACGC [EX4 B.30] (Eterna round: R97, puzzle: Exclusion 4) | 172 nM | 133 nM | – | –
CUUGUUUAUGUAGGAUAUGCCUGGCGUGCCUUUGCAGAAGGACAUGAGGAUCACCCAUGUAGUAUGAGGCUUACCCUUGUCGCC [salish99_ExNG1_r04_120] (Eterna round: R96, puzzle: Exclusion NG 1) | – | – | – | apparent KD of MS2 coat protein [1]: 19.9 nM
CUUUACAAGCUAAGAUCCUACAUGAGGAUCACCCAUGUGGUCCGGUGACGUGAGUCACCGGACUUAGCUCGUCUUGC [salish99_S_TOV1_R5_094] (Eterna round: R97, puzzle: Sensor, turn-off variant 1) | 31.2 nM | 36.8 nM | – | –
CUUUACAAGCUAAGAUCCUACAUGAGGAUCACCCAUGUGGUCCGGUGACGUGAGUCACCGGACUUAGCUCGUCUUGG [salish99_S_TOV1_R5_095] (Eterna round: R97, puzzle: Sensor, turn-off variant 1) | 30.1 nM | 32.2 nM | – | –
CUUUCGUGAGGAUAUCAGUAGUAAAAAAAUAAAAUUACUACUGAGAAGGCACAUGAGGAUCACCCAUGUUCCUC [salish99_ex3_r3_097] (puzzle: Exclusion 4) | – | – | 25.7 nM | –
CUUUUGUGAGGAUAUCAGUAGUAAAAAAAUAAAAUUUCUACUGAGAAGGCACAUGAGGAUCACCCAUGUUCCUC [salish99_ex4_r3_026] (puzzle: Exclusion 4) | – | – | 34.5 nM | –
CUUUUGUGAGGAUAUCAGUAGUAAAUAAAUAAAUUAACUACUGAGAAGGCACAUGAGGAUCACCCAUGUUCCUU [Mat - Exclusion 4 - Mod of Salish - D65] (puzzle: Exclusion 4) | – | – | 13.7 nM | –
CUUUUGUGAGGAUAUCAGUAGUAUAAAAUUAAAAUUACUACUGAGAAGGCACAUGAGGAUCACCCAUGUUCCUC [Mat - Exclusion 4 - Mod of Salish - D75] (puzzle: Exclusion 4) | – | – | 36 nM | –
CUUUUGUGAGGAUAUUAGUAGUAAUUAAAUAAAAUUACUACUGAGAAGGCACAUGAGGAUCACCCAUGUUCCUC [salish99_ex4_r3_053] (puzzle: Exclusion 4) | – | – | 35.9 nM | –
GAAAACGCAGAGGAUAUUUCAGAUCAAAGCUGCAAAGAAGGCUGCACAUGAGGAUCACCCAUGUGGUCUUCAAU [Mat - Exclusion 6 - JL Mod - D8] (Eterna round: R97, puzzle: Exclusion 6) | 315 nM | 25.8 nM | – | –
GAAAAGCUAGGAUAUACGAAAAAAAAGGGUAGAAAAAAAACACAUGAGGAUCACCCAUGUAGAAGGAGCAAAAG [salish99_ex2_r3_093] (puzzle: Exclusion 2) | – | – | 51 nM | apparent KD of MS2 coat protein [3]: 102 nM; apparent KD of MS2 coat protein [4]: 48.2 nM
GAAAAGGUAGGAUAUACGAAAAAAAAGGGUAGAAAAAAAACACAUGAGGAUCACCCAUGUAGAAGGACCAAAAA [salish99_ex2_r3_050] (puzzle: Exclusion 2) | – | – | 45 nM | apparent KD of MS2 coat protein [3]: 98.9 nM; apparent KD of MS2 coat protein [4]: 34.2 nM
GAAAAGGUAGGAUAUACGAAAAAAAAGGGUAGAAAAAAAACACAUGAGGAUCACCCAUGUAGAAGGACCAAAAU [salish99_ex2_r3_051] (puzzle: Exclusion 2) | – | – | 29.2 nM | apparent KD of MS2 coat protein [3]: 76.9 nM; apparent KD of MS2 coat protein [4]: 26.7 nM
GAAAAGGUAGGAUAUACGAAAAAAAAGGGUAGGAAAAAAACACAUGAGGAUCACCCAUGUAGAAGGACCAAAAG [salish99_ex2_r3_024] (puzzle: Exclusion 2) | – | – | 21.8 nM | apparent KD of MS2 coat protein [3]: 61.7 nM; apparent KD of MS2 coat protein [4]: 19.8 nM
GAAGAAGAGAGAAAAGAAAACAUGAGGAUCACCCAUGUGAGAAGAUGAGGGUGAUACAGGCUAUAUGCUCGUCUUAU (puzzle: Sensor v3, turn-off variant 1) | – | – | 28.8 nM | apparent KD of MS2 coat protein [3]: 247 nM; apparent KD of MS2 coat protein [4]: 295 nM
GAAGUAUGAGUUAGGAUAUGAUGAUUUUUAUUAAAUCAGAAGGAACUUGAGGAUCACCCAAGUAAAGAAUUGGU [JR_BMEx4_Sub070] (Eterna round: R97, puzzle: Brourd's mod of Exclusion 4) | 16.1 nM | 15.6 nM | – | –

Sequence | apparent KD of MS2 coat protein (input ligand: FMN 200 uM) | apparent KD of MS2 coat protein (input ligand: none) | apparent KD of MS2 coat protein [2] | other results
GAAUAGAGAGGAUAUGCGUAGUAGGUAGUAAGAUAUAUAUGACAUGAGGAUCACCCAUGUAGAAGGCUCAGAUA [EX2 #2] (Eterna round: R97, puzzle: Exclusion 2) | 38.3 nM | 35.8 nM | – | –
GAAUGAGAGCAGGAUAUCUUAUAAAUGUAUGAAAGAGAAGGGCUCACAUGAGGAUCACCCAUGUGGUCCUAAAU [jl-ex6-4.74 jandersonlee mod] (Eterna round: R97, puzzle: Exclusion 6) | 286 nM | 44.5 nM | – | –
GACAAGGGAGGAUAUGCACAAGGGAUAUCUGACAUGCCGUUACAUGAGGAUCACCCAUGUAGAAGGCCCGAAUA [Didiin] (puzzle: Exclusion 2) | – | – | 13.3 nM | –
GACAAGGUGUAGGAUAUGCUUAGCCUUAAGAAAGCAGAAGGACAAACUUGAGGAUCACCCAAGUGGUCCAAACA [Diraveti] (Eterna round: R97, puzzle: Exclusion 6) | 65.5 nM | 19.6 nM | – | –
GACACCAAAGGAUAUACAUGAGGAUCACCCAUGUGCUGCAAAAGCUGAGCUCAAAUGUGUAGAAGGUUGAAAUA [Eternabot (Original) Solution 40] (Eterna round: R97, puzzle: Exclusion 3) | 39 nM | 31.6 nM | – | –
GACCAACGGGUUUACCUUUACAUGAGGAUCACCCAUGUCGCAAGCUUUUUCUCGGGUCCAAUCUUAUAAAUAUUAAU [Legedi] (puzzle: Sensor v3, turn-off variant 1) | – | – | 314 nM | apparent KD of MS2 coat protein [3]: 144 nM; apparent KD of MS2 coat protein [4]: 179 nM
GACGUGUGAGGAUAUCCGAUGCCGGUCCGGAAGGUUCGGGUGGAGAAGGCACAUGAGGAUCACCCAUGUGUAAG [Excls4-VII] (puzzle: Exclusion 4) | – | – | 16.4 nM | –
GACGUGUUAGGAUAUAGCUCUCGGGACAGCAAUGAUCCGAGUUAGAAGGAACAUGAGGAUCACCCAUGUUAUUU [Eternabot (L2) Solution 60] (Eterna round: R97, puzzle: Exclusion 4) | 18.4 nM | 21.1 nM | – | –
GACUAGGCAGGAUAUACAUGAGGAUCACCCAUGUGUCUGCGUUAAGCACGUGAAGACGGUAGAAGGGCCUUCAC [ChP 13.04.2015 #17] (puzzle: Exclusion 3) | – | – | 10.3 nM | –
GACUGAAUUUUGUUUGGUUACAUGAGGAUCACCCAUGUUGGUCUAAGAACAUGUCUUUUGUACGCUUGUCUUAUAUA [JR_SV3TOV1_Sub069] (puzzle: Sensor v3, turn-off variant 1) | – | – | 44.9 nM | apparent KD of MS2 coat protein [3]: 68.9 nM; apparent KD of MS2 coat protein [4]: 100 nM
GAGAAGGUAGGAUAUACGAAGAAAGAGGGUAGGAAGAAGACACAUGAGGAUCACCCAUGUAGAAGGACCAAGAG [Mat - Exclusion 2 - Mod of my Tesla design - D48] (puzzle: Exclusion 2) | – | – | 13.9 nM | apparent KD of MS2 coat protein [3]: 27.1 nM; apparent KD of MS2 coat protein [4]: 14.1 nM
GAGAGAGCCAUAGGAUAUGCCCGCCCGCUUGCGGCAGAAGGAUGUUGACAUGAGGAUCACCCAUGUGGAUCGCCCAUGUUUGUG [All by luck] (Eterna round: R96, puzzle: Exclusion NG 1) | 604 nM | 286 nM | – | apparent KD of MS2 coat protein [1]: 191 nM
GAGAGCAACGUCAGGAUAUUUAACCAAAACGCGGUAGAGAAGGGACAUGAGGAUCACCCAUGUGACUUCGGGCA [Eternabot (L1) Solution 83] (Eterna round: R97, puzzle: Brourd's mod of Exclusion 4) | 15.5 nM | 16.8 nM | – | –
GAGCUGUGAGGAUAUACAUGAGGAUCACCCAUGUAAUGGUAGUCGGGAUUAAUUUGGUGUAGAAGGCGCUUAUU [JR_Ex3_Sub020] (Eterna round: R97, puzzle: Exclusion 3) | 41 nM | 46 nM | – | –
GAGGAUAGAGGAUAUGCAUAGAUACGGAUUCGUGUAGUACUACAUGAGGAUCACCCAUGUAGAAGGCUGUCCAG [Mat - Exclusion 2 - Mod of JL - D75] (puzzle: Exclusion 2) | – | – | 12.8 nM | –
GAGGCAUGCCUAGGUCCACACAUGAGGAUCACCCAUGUAAUGACAGGCUUUUUACUCGUUUUAUCGCUAUCGCGUUC [Enaor] (puzzle: Sensor v3, turn-off variant 1) | – | – | 20.7 nM | apparent KD of MS2 coat protein [3]: 13.2 nM; apparent KD of MS2 coat protein [4]: 11.8 nM
GAGGUCGCAGGAUAUAGUACAUAGAACAUGAGGAUCACCCAUGUAGCGGGAGGUUCUAUAUUAGAAGGGUGAAGUC [Eternabot (L2) Solution 97] (Eterna round: R97, puzzle: Exclusion 5) | 572 nM | 494 nM | – | –
GAGUGACAUGAGGAUCACCCAUGUGAGGAUAUCGGACGGACCAAAUUAACAAUAGAAGCGAGAAGGCACAUAAG [Exclusion 1 V11] (puzzle: Exclusion 1) | – | – | 74.3 nM | apparent KD of MS2 coat protein [3]: 72.4 nM; apparent KD of MS2 coat protein [4]: 81.3 nM
